# Measured values as given in the Immune Epitope Database (IEDB).
# pKd: −log10 of the molar value.
# Key:
# HLA-B*40:01 [1] = test: IEDB peptide-MHC binding, purified MHC/competitive/radioactivity; filed as Kd, often an IC50 or EC50 that approximates it; ≥ and ≤ were set here for values at or beyond the usual limits of such assays
# HLA-B*45:01 = test: as above
# HLA-B*44:02 [2] = test: as above
# HLA-B*40:02 = test: as above
# HLA-B*44:03 = test: as above
# HLA-B*18:01 [3] = test: as above
# HLA-B*07:02 [4] = test: IEDB peptide-MHC binding, purified MHC/direct/fluorescence; filed as Kd, often an IC50 or EC50 that approximates it; ≥ and ≤ were set here for values at or beyond the usual limits of such assays
# HLA-B*27:03 = test: IEDB peptide-MHC binding, purified MHC/competitive/fluorescence; filed as Kd, often an IC50 or EC50 that approximates it; ≥ and ≤ were set here for values at or beyond the usual limits of such assays
# HLA-A*02:01 [5] = test: as above; conditions: source organism: Homo sapiens
# HLA-B*18:01 [6] = test: as above
# HLA-B*53:01 = test: IEDB peptide-MHC binding, purified MHC/competitive/radioactivity; filed as Kd, often an IC50 or EC50 that approximates it; ≥ and ≤ were set here for values at or beyond the usual limits of such assays
# HLA-B*51:01 [7] = test: as above
# HLA-B*35:01 = test: as above
# HLA-A*24:03 = test: IEDB peptide-MHC binding, purified MHC/direct/fluorescence; filed as Kd, often an IC50 or EC50 that approximates it; ≥ and ≤ were set here for values at or beyond the usual limits of such assays
# HLA-A*02:01 [8] = test: as above
# HLA-A*03:01 = test: as above
# HLA-B*39:01 = test: IEDB peptide-MHC binding, purified MHC/competitive/fluorescence; filed as Kd, often an IC50 or EC50 that approximates it; ≥ and ≤ were set here for values at or beyond the usual limits of such assays; conditions: source organism: Zaire ebolavirus
# HLA-B*15:17 = test: as above; conditions: source organism: Zaire ebolavirus
# HLA-A*69:01 [9] = test: as above; conditions: source organism: Zaire ebolavirus
# HLA-B*51:01 [10] = test: as above; conditions: source organism: Zaire ebolavirus
# HLA-B*15:01 [11] = test: as above; conditions: source organism: Zaire ebolavirus
# HLA-B*57:01 = test: as above; conditions: source organism: Zaire ebolavirus
# HLA-B*46:01 = test: as above; conditions: source organism: Zaire ebolavirus
# HLA-B*07:02 [12] = test: IEDB peptide-MHC binding, purified MHC/competitive/radioactivity; filed as Kd, often an IC50 or EC50 that approximates it; ≥ and ≤ were set here for values at or beyond the usual limits of such assays
# HLA-A*30:02 = test: as above; conditions: source organism: Dengue virus 4 Philippines/H241/1956
# HLA-A*02:12 = test: IEDB peptide-MHC binding, purified MHC/direct/fluorescence; filed as Kd, often an IC50 or EC50 that approximates it; ≥ and ≤ were set here for values at or beyond the usual limits of such assays; conditions: source organism: Mycobacterium tuberculosis str. Haarlem
# HLA-B*40:01 [13] = test: as above
# HLA-B*44:02 [14] = test: as above
# HLA-B*18:01 [15] = test: as above; conditions: source organism: Orthohantavirus hantanense
# HLA-A*33:01 = test: IEDB peptide-MHC binding, purified MHC/competitive/radioactivity; filed as Kd, often an IC50 or EC50 that approximates it; ≥ and ≤ were set here for values at or beyond the usual limits of such assays; conditions: source organism: Dengue virus 2 Jamaica/1409/1983
# HLA-A*68:01 = test: as above
# HLA-A*69:01 [16] = test: IEDB peptide-MHC binding, purified MHC/direct/fluorescence; filed as Kd, often an IC50 or EC50 that approximates it; ≥ and ≤ were set here for values at or beyond the usual limits of such assays; conditions: source organism: Coxiella burnetii
# HLA-B*58:01 = test: as above; conditions: source organism: Coxiella burnetii
# HLA-B*15:01 [17] = test: as above; conditions: source organism: Coxiella burnetii
# HLA-A*01:01 = test: as above; conditions: source organism: Coxiella burnetii
# HLA-A*11:01 = test: as above; conditions: source organism: Coxiella burnetii
# HLA-B*08:01 = test: as above; conditions: source organism: Coxiella burnetii
# HLA-A*26:01 = test: as above; conditions: source organism: Coxiella burnetii
# HLA-B*27:05 = test: as above; conditions: source organism: Coxiella burnetii
# [18] = source organism: Mammarenavirus guanaritoense
# [19] = source organism: Mammarenavirus lassaense
# [20] = source organism: SARS coronavirus Tor2
# [21] = source organism: Dengue virus 1 Brazil/97-11/1997
# [22] = source organism: Dengue virus 2 Jamaica/1409/1983
# [23] = source organism: Zaire ebolavirus
# [24] = source organism: Mammarenavirus machupoense
# [25] = source organism: Dengue virus 3 Martinique/1243/1999
# [26] = source organism: Dengue virus 4 Philippines/H241/1956
# [27] = source organism: Orthohantavirus hantanense
# [28] = source organism: Coxiella burnetii
# [29] = source organism: Dengue virus 3 Sri Lanka/1266/2000
sequence,measurement,setting,value
ADSEITETY,pKd,HLA-B*40:01 [1]; [18],≤ 4.42
same,pKd,HLA-B*45:01; [18],4.77
same,pKd,HLA-B*44:02 [2]; [18],5.18
same,pKd,HLA-B*40:02; [18],≤ 4.11
same,pKd,HLA-B*44:03; [18],5.56
same,pKd,HLA-B*18:01 [3]; [18],5.86
REAYCQEFSL,pKd,HLA-B*40:01 [1]; [19],5.01
same,pKd,HLA-B*45:01; [19],5.81
same,pKd,HLA-B*44:02 [2]; [19],5.97
same,pKd,HLA-B*40:02; [19],8.87
same,pKd,HLA-B*44:03; [19],5.55
same,pKd,HLA-B*18:01 [3]; [19],4.95
GVRQFSGWM,pKd,HLA-B*07:02 [4]; source organism: Homo sapiens,7.66
same,pKd,HLA-B*27:03; source organism: Homo sapiens,≤ 4.70
same,pKd,HLA-A*02:01 [5],≤ 4.70
same,pKd,HLA-B*18:01 [6]; source organism: Homo sapiens,≤ 4.70
GEDTVWEVQG,pKd,HLA-B*40:01 [1]; [20],≤ 4.53
same,pKd,HLA-B*45:01; [20],5.39
same,pKd,HLA-B*44:02 [2]; [20],≤ 4.35
same,pKd,HLA-B*40:02; [20],4.74
same,pKd,HLA-B*44:03; [20],4.79
same,pKd,HLA-B*18:01 [3]; [20],≤ 4.15
YAQMWQLMYF,pKd,HLA-B*53:01; [21],7.09
same,pKd,HLA-B*51:01 [7]; [21],4.71
same,pKd,HLA-B*35:01; [21],6.02
RPASAWTLY,pKd,HLA-B*53:01; [22],7.06
same,pKd,HLA-B*35:01; [22],7.08
KLINTLFHA,pKd,HLA-A*24:03; [23],≤ 4.70
same,pKd,HLA-A*02:01 [8]; source organism: Sudan ebolavirus - Maleo (1979),8.33
same,pKd,HLA-A*03:01; [23],≤ 4.70
same,pKd,HLA-B*39:01,≤ 4.70
same,pKd,HLA-B*15:17,≤ 4.70
same,pKd,HLA-A*69:01 [9],≤ 4.70
same,pKd,HLA-B*51:01 [10],≤ 4.70
same,pKd,HLA-B*15:01 [11],≤ 4.70
same,pKd,HLA-B*57:01,≤ 4.70
same,pKd,HLA-B*27:03; [23],≤ 4.70
same,pKd,HLA-B*46:01,≤ 4.70
same,pKd,HLA-B*18:01 [6]; [23],≤ 4.70
PDFNSLISI,pKd,HLA-B*40:01 [1]; [24],4.80
same,pKd,HLA-B*45:01; [24],≤ 4.11
same,pKd,HLA-B*44:02 [2]; [24],≤ 4.58
same,pKd,HLA-B*40:02; [24],6.09
same,pKd,HLA-B*44:03; [24],≤ 4.11
same,pKd,HLA-B*18:01 [3]; [24],≤ 4.11
VPMSTYGWNI,pKd,HLA-B*53:01; [25],7.35
same,pKd,HLA-B*07:02 [12]; [25],7.22
same,pKd,HLA-B*51:01 [7]; [25],7.04
IDFLIMRNL,pKd,HLA-B*40:01 [1]; [18],4.81
same,pKd,HLA-B*45:01; [18],4.74
same,pKd,HLA-B*44:02 [2]; [18],4.84
same,pKd,HLA-B*40:02; [18],6.65
same,pKd,HLA-B*44:03; [18],4.79
same,pKd,HLA-B*18:01 [3]; [18],4.82
RPTPKGTVMD,pKd,HLA-B*07:02 [12]; source organism: Dengue virus 3 Singapore/8120/1995,7.21
YDQMKCKSL,pKd,HLA-B*40:01 [1]; [19],≤ 4.12
same,pKd,HLA-B*45:01; [19],≤ 4.23
same,pKd,HLA-B*44:02 [2]; [19],≤ 4.12
same,pKd,HLA-B*40:02; [19],5.49
same,pKd,HLA-B*44:03; [19],≤ 4.11
same,pKd,HLA-B*18:01 [3]; [19],≤ 4.11
SPKRLSAAIG,pKd,HLA-B*07:02 [12]; [21],6.90
FENKTTLPV,pKd,HLA-B*40:01 [1]; [20],6.94
same,pKd,HLA-B*45:01; [20],6.07
same,pKd,HLA-B*44:02 [2]; [20],4.77
same,pKd,HLA-B*40:02; [20],7.60
same,pKd,HLA-B*44:03; [20],5.73
same,pKd,HLA-B*18:01 [3]; [20],6.18
YAGPFSQHNY,pKd,HLA-B*35:01; [26],6.95
same,pKd,HLA-A*30:02,7.83
TPFAEYTNSV,pKd,HLA-B*07:02 [12]; [26],7.14
same,pKd,HLA-B*51:01 [7]; [26],6.09
NDNFLMRNV,pKd,HLA-B*40:01 [1]; [24],≤ 4.12
same,pKd,HLA-B*45:01; [24],≤ 4.11
same,pKd,HLA-B*44:02 [2]; [24],5.00
same,pKd,HLA-B*40:02; [24],5.67
same,pKd,HLA-B*44:03; [24],≤ 4.37
same,pKd,HLA-B*18:01 [3]; [24],≤ 4.12
WLSQTTLSV,pKd,HLA-A*02:12,8.52
RELGLDISL,pKd,HLA-B*40:01 [13]; [27],8.92
same,pKd,HLA-B*44:02 [14]; [27],5.48
same,pKd,HLA-B*18:01 [15],8.57
QPQWIAASII,pKd,HLA-B*07:02 [12]; [26],6.54
same,pKd,HLA-B*51:01 [7]; [26],6.14
LALMATFKM,pKd,HLA-B*35:01; [21],6.96
FTNMEAQLIR,pKd,HLA-B*35:01; [22],5.01
same,pKd,HLA-A*33:01,6.97
same,pKd,HLA-A*68:01; [22],7.71
YYYNFSEDL,pKd,HLA-A*69:01 [16],≤ 4.70
same,pKd,HLA-B*58:01,≤ 4.70
same,pKd,HLA-B*07:02 [4]; [28],≤ 4.70
same,pKd,HLA-B*40:01 [13]; [28],≤ 4.70
same,pKd,HLA-B*15:01 [17],≤ 4.70
same,pKd,HLA-A*01:01,≤ 4.70
same,pKd,HLA-A*11:01,≤ 4.70
same,pKd,HLA-A*24:03; [28],8.98
same,pKd,HLA-B*08:01,≤ 4.70
same,pKd,HLA-A*02:01 [8]; [28],≤ 4.70
same,pKd,HLA-B*44:02 [14]; [28],≤ 4.70
same,pKd,HLA-A*26:01,≤ 4.70
same,pKd,HLA-A*03:01; [28],≤ 4.70
same,pKd,HLA-B*27:05,≤ 4.70
LPAALAFHL,pKd,HLA-B*53:01; [29],7.97
same,pKd,HLA-B*07:02 [12]; [29],7.14
same,pKd,HLA-B*51:01 [7]; [29],6.08
NPWMEDKTPV,pKd,HLA-B*07:02 [12]; [22],7.25
FTNMEAQLVR,pKd,HLA-B*35:01; [29],4.93
same,pKd,HLA-A*68:01; [29],7.10
WHYDDENPY,pKd,HLA-B*35:01; [25],5.58
TPRGTVMDII,pKd,HLA-B*07:02 [12]; [22],8.21
same,pKd,HLA-B*51:01 [7]; [22],5.62
RPGYHTQTA,pKd,HLA-B*07:02 [12]; [22],8.02
